Laboratory results taken from patent US20150175710A1 (published 2015).

Tests used:
Assay in all cases: ELISA
6B11 = target: 6B11
17G10 = target: 17G10
12D9 = target: 12D9

B1: mouse ENO1 (receptor)
chain: MSILRIHAREIFDSRGNPTVEVDLYTAKGLFRAAVPSGASTGIYEALELRDNDKTRFMGKGVSQAVEHINKTIAPALVSKKVNVVEQEKIDKLMIEMDGTENKSKFGANAILGVSLAVCKAGAVEKGVPLYRHIADLAGNPEVILPVPAFNVINGGSHAGNKLAMQEFMILPVGASSFREAMRIGAEVYHNLKNVIKEKYGKDATNVGDEGGFAPNILENKEALELLKTAIAKAGYTDQVVIGMDVAASEFYRSGKYDLDFKSPDDPSRYITPDQLADLYKSFVQNYPVVSIEDPFDQDDWGAWQKFTASAGIQVVGDDLTVTNPKRIAKAASEKSCNCLLLKVNQIGSVTESLQACKLAQSNGWGVMVSHRSGETEDTFIADLVVGLCTGQIKTGAPCRSERLAKYNQILRIEEELGSKAKFAGRSFRNPLAK
6B11
  Kd: 3.04 nM
17G10
  Kd: 33.9 nM
12D9
  Kd: 0.39 nM
